B1: RHOBTB2 (parent)
chain: HHHHGRDFLLRAASFDVCESVDEA
B2: ZNF263 (parent)
chain: KPYKCTLCGENFSHRSNLIRHQRI

Variants of: B1
Assay: protein stability index of a GFP-peptide fusion (GPS, HEK-293T) (PSI 1-6); higher = more stable
Conditions: c terminus: a fixed tail appended
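Note: lentivirally expressed fusions sorted by FACS into six bins by GFP to DsRed ratio, PSI derived from sequencing read proportions per bin multiplied by bin number.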

Variant	protein stability index
C18S	4.06
C18L	2.9
H4L	3.65
H4V	4.02
H4Q	4.11
H3K	3.04
H3F	3.33
H3Q	3.87
H3E	4.71
L10H	4.69
L10E	5.02
G5P	4.44
G5Q	4.21
G5T	4.15
H1R	3.92
H1S	4.34
L9H	5.1
H2D	4.67
H2W	3.35
V21R	3.68
V21S	3.62
R11C	2.63
R11L	2.35

Variant	protein stability index
R11M	2.38
F8H	5.06
D22V	2.91
A13C	1.87
A13F	1.92
A13E	4.38
R6C	3.51
R6S	3.85
R6V	2.63
R6E	5.07
D16Y	1.67
D16K	2.79
D16M	2.44
S14Q	4.17
E19Q	3.34
E19C	2.42
S20I	2.73
S20M	2.71
S20P	3.76
S20K	4.12
D7H	2.34
D7T	2.92
D7G	3.34

Variants of: B2
Assay: as above
Conditions: c terminus: a fixed tail appended

Variant	protein stability index
I24N	3.11
I24Y	2.51
I24E	3.68
I24Q	4.56
I24H	2.45
I24C	3.76
I24G	2.75
I24S	2.53
I24L	2.3
I24P	2.59
I24T	2.64
I24F	1.93
I24K	2.89
I24W	2.4
I24V	2.63
I24M	2.74
I24A	2.81
I24D	3.09
I24R	3.16
G9W	1.62
G9V	2.14
G9T	1.39
G9Y	2.61
N11P	1.8

Variant	protein stability index
N11Q	2.62
N11W	2.25
N11I	3.18
N11A	2.72
N11L	2.69
N11D	2.23
N11F	2.61
N11V	2.83
N11G	2.52
N11C	3.11
N11E	3.23
N11R	3.03
N11T	3.59
N11K	2.98
N11H	3.33
N11Y	2.8
N11S	2.8
N11M	3.49
I19H	2.33
I19R	2.9
I19E	2.89
I19A	2.57
I19F	1.88
I19T	2.5

Variant	protein stability index
I19N	1.77
I19G	3.08
I19Q	2.44
I19W	1.5
I19M	2.62
I19P	2.11
I19C	4.18
I19D	2.74
I19V	2.54
I19L	2.32
I19S	1.88
I19Y	2.3
I19K	2.65
H14G	1.97
H14D	2.68
H14W	1.43
H14V	2.43
H14A	2.56
H14L	2.73
H14Q	1.9
H14C	2.68
H14F	2.23
H14I	2.07
H14R	2.41

Variant	protein stability index
H14N	2.56
H14T	2.75
H14M	2.55
H14S	3.56
H14E	2.95
H14Y	3.16
H14K	2.81
H14P	1.85
R15K	2.28
R15V	2.88
R15F	2.96
R15Q	2.43
R15P	2.52
R15A	2.87
R15S	1.38
R15E	2.69
R15M	2.85
R15H	2.15
R15N	2.1
R15D	1.55
R15G	2.08
R15C	2.34
R15Y	2.45
R15I	2.73

Variant	protein stability index
R15T	1.59
R15W	2.54
R15L	2.45
Q22F	2.35
Q22T	2.54
Q22E	1.66
Q22S	2.54
Q22G	1.86
Q22N	2.61
Q22D	2.01
Q22R	3.17
Q22I	2.72
Q22C	2.44
Q22K	2.14
Q22H	3.09
Q22V	2.29
Q22Y	2.91
Q22W	2.65
Q22P	1.39
Q22L	2.35
Q22A	2.49
Q22M	3.43
S16D	2.74
S16W	2.43

Variant	protein stability index
S16C	2.41
S16M	2.26
S16P	1.77
S16F	2.02
S16A	2.04
S16T	1.65
S16V	1.87
S16I	2.41
S16Y	2.91
S16N	2.13
S16H	2.76
S16G	1.94
S16E	2.53
S16K	3.28
S16R	3.92
S16Q	2.81
S16L	2.88
H21S	1.89
H21M	2.72
H21P	1.69
H21W	3.53
H21L	1.89
H21F	2.34
H21I	1.58

Variant	protein stability index
H21Y	2.46
H21G	1.83
H21E	2.58
H21Q	1.14
H21D	2.29
H21N	3.21
H21A	2.13
H21R	1.78
H21T	2.22
H21K	2.04
H21C	2.6
L18I	1.95
L18G	1.98
L18K	2.19
L18A	2.35
L18C	3.22
L18W	2.19
L18N	2.21
L18T	1.72
L18P	1.88
L18D	1.74
L18R	2.81
L18Y	2.38
L18S	1.77

Variant	protein stability index
L18Q	2.42
L18V	2.59
L18M	1.93
L18H	2.93
L18E	1.81
L18F	2.56
E10Q	2.98
E10I	2.35
E10P	2.09
E10C	1.94
E10G	3.09
E10V	2.56
E10M	2.67
E10Y	1.69
E10N	2.24
E10K	3.4
E10F	2.36
E10R	2.97
E10L	1.88
E10H	2.71
E10A	2.82
E10T	2.06
E10S	2.61
E10D	2.25

Variant	protein stability index
E10W	2.35
R20F	2.58
R20A	2.43
R20Q	2.6
R20W	1.76
R20Y	1.68
R20C	2.45
R20T	2.33
R20L	2.15
R20M	2.22
R20K	2.67
R20I	1.81
R20S	1.8
R20N	2.38
R20P	1.7
R20V	1.99
R20H	1.76
R20E	3.12
R20G	2.37
R20D	2.84
S13P	2.45
S13W	2.53
S13D	2.12
S13E	2.52

Variant	protein stability index
S13A	2.87
S13T	2.13
S13G	2.59
S13H	2.38
S13R	3.45
S13V	2.39
S13N	2.35
S13I	2.67
S13F	2.26
S13Q	2.84
S13C	2.4
S13K	2.38
S13M	2.52
S13L	2.32
S13Y	2.89
F12E	1.93
F12P	1.57
F12L	2.1
F12C	2.71
F12R	1.54
F12I	2.41
F12A	1.97
F12T	1.66
F12N	1.96

Variant	protein stability index
F12W	2.12
F12Y	1.44
F12S	1.99
F12Q	2.18
F12M	2.01
F12D	1.28
F12V	3.52
F12G	1.8
F12H	2.65
F12K	1.58
R23M	2.88
R23V	2.01
R23D	2.73
R23F	1.66
R23Q	2.34
R23T	1.88
R23A	2.57
R23C	4.48
R23I	2.48
R23K	3.08
R23G	2.49
R23W	1.65
R23P	1.33
R23H	3.28

Variant	protein stability index
R23L	2.82
R23Y	2.57
R23S	2.28
R23N	2.63
R23E	2.67
N17A	3.59
N17S	2.99
N17Q	2.9
N17R	2.64
N17D	3.88
N17E	3.31
N17I	2.93
N17V	1.7
N17Y	3.12
N17M	2.87
N17K	3.28
N17L	2.77
N17G	3.16
N17P	1.87
N17H	3.64
N17T	2.65
N17F	2.08
N17C	2.47
N17W	2.07
